No end group written: not given here. *: point of attachment. FITC = O=C1OC2(c3ccc(O)cc3Oc3cc(O)ccc32)c2ccc(NC(=S)*)cc21
Target: yeast-displayed E4 peptide
Assay: flow cytometry on cells; E4 displayed on yeast cells; FITC-K4-TAMRA added at 100 nM, 15 min, 4 °C, PBS containing 5% immunoblock, two washings; 488 nm laser, 525/50 and 585/30 filters

mean FITC and TAMRA fluorescence: 10000
Binder: {FITC}-KIAALKEKIAALKEKIAALKEKIAALKEC(5‑TAMRA C6 maleimide) [FITC-K4-TAMRA]
